In this experiment the target is Firefly Luciferase, heat-aggregated [luciferase: P08659]. Description: co-sedimentation; 1.5 μM ClpG-DWB with 2 μM aggregated Luciferase in buffer A (50 mM Tris pH 7.5, 50 mM KCl, 10 mM MgCl2, 2 mM DTT), 2 mM ATP, 25 °C, 10 min; 1 μM DnaK with 0.2 μM DnaJ added to selected reactions; centrifugation at 13,000 rpm, pellet washed once; SDS-PAGE, Coomassie, ImageJ; control without aggregated Luciferase.

Consider “P. aeruginosa ClpGGI-E383A/E732A (enzyme)”, for which the fold reduction of binding on addition of DnaK (with DnaJ) is 1.86 fold.
